In patent publication US20020165132A1 one finds IC50, MVD IC50 and GPI IC50 data, which are given here for eleven molecules.

Positions of bridges follow the written chain, without caps; N, C: chain ends. Non-standard residues stand in square brackets, D forms with d. No end group written: not given here. AlaL = alanine half of a lanthionine (monosulfide) bridge; Thr(ol) = C[C@@H](O)[C@H](N)CO; dValL = not defined here

Assay [1] addresses SSTR4 Receptor (cloned somatostatin receptor). The experiment in a line: inhibition of radioligand binding to cloned SSTR4.
For assay [2], the target named is δ-receptor (mouse vas deferens preparation) (mouse), P32300. The experiment in a line: cell-based or functional assay.
The target of assay [3] is µ-receptor (guinea pig ileum preparation) (guinea pig). Nature of the assay: cell-based or functional assay.
In assay [4] the target is δ-receptor (mouse vas deferens preparation) (mouse) (UniProt P32300). The experiment in a line: cell-based or functional assay.
In assay [5] the target is SSTR2 Receptor (cloned somatostatin receptor). The experiment in a line: inhibition of radioligand binding to cloned SSTR2.
SSTR2 Receptor (cloned somatostatin receptor), sequence (P30875 whole entry): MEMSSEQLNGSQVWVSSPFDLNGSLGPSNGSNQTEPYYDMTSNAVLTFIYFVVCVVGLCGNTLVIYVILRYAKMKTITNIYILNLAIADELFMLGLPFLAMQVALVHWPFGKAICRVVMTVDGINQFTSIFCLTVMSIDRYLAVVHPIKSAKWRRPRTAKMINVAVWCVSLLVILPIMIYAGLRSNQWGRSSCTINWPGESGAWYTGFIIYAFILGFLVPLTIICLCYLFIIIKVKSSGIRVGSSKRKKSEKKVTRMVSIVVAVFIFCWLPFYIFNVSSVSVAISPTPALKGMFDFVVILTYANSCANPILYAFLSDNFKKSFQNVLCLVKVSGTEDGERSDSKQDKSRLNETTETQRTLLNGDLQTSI

SSTR4 Receptor (cloned somatostatin receptor), sequence (P30938 whole entry): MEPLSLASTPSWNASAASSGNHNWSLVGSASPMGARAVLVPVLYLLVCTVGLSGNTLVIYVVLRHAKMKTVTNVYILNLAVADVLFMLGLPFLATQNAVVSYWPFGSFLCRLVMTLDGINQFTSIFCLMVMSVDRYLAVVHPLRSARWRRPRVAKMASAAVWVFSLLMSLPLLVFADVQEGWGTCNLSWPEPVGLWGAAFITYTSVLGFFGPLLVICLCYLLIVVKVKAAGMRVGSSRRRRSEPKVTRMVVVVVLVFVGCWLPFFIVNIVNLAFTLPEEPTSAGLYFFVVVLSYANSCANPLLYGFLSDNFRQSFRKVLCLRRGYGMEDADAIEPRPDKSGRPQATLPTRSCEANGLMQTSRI
δ-receptor (mouse vas deferens preparation) (mouse), P32300, sequence (P32300 whole entry, stated change not applied): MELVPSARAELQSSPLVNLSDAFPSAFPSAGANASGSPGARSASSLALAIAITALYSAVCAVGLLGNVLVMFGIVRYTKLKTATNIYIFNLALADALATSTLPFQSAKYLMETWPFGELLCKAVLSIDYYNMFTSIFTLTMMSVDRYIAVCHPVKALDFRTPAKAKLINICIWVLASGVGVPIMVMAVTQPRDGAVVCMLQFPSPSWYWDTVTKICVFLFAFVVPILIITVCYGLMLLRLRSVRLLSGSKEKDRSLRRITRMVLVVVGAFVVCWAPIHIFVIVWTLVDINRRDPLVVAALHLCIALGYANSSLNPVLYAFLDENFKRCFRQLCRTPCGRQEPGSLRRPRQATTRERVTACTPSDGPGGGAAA
δ-receptor (mouse vas deferens preparation) (mouse), sequence (P32300 whole entry, stated change not applied): as above

H-[dF][AlaL]F[dW]KT[AlaL]-OH (thioether 2-7) [H-D-Phe-c[AlaLPhe-D-Trp-Lys-Thr-AlaL]-OH] gave an IC50 in assay [1] of 500 nM.

B1: Tyr-c[D-AlaL-Gly-Phe-L-AlaL]-NH2 (peptide)
peptide: Y[dAlaL]GF[AlaL]-NH2
modifications: bridge 2-5; not fully specified (bridges); printed as Tyr-c[D-AlaL-Gly-Phe-L-AlaL]-NH2
Take B1: the MVD IC50 in assay [2] came out at 0.54 nM.

B2: Tyr-c[D-ValL-Gly-Phe-L-AlaL]-OMe (peptide)
peptide: Y[dValL]GF[AlaL]-OMe
modifications: thioether 2-5; reading uncertain; also: printed as Tyr-c[D-ValL-Gly-Phe-L-AlaL]-OMe
As for B2, in assay [3], the GPI IC50 was 88.1 nM. Also, in assay [4], the MVD IC50 came out at 3.65 nM.

In the case of AGCKNFFWKTFTSC (peptide, UniProt P61278 103-116, looked up, disulfide 3-14 (inferred)) [Somatostatin-14], the IC50 in assay [5] amounted to 0.28 nM; in assay [1] it was 0.86 nM.

B3: Tyr-c[D-ValL-Gly-Phe-D-AlaL]-OH (peptide)
peptide: Y[dValL]GF[dAlaL]-OH
modifications: thioether 2-5; reading uncertain; also: printed as Tyr-c[D-ValL-Gly-Phe-D-AlaL]-OH
With B3, the GPI IC50 in assay [3] turned out to be 535 nM.

With Y[dAlaL]GF[dAlaL]-NH2 (thioether 2-5) [Tyr-c[D-AlaL-Gly-Phe-D-AlaL]-NH2], the GPI IC50 in assay [3] was found to be 1.67 nM. Further, the MVD IC50 in assay [4] came to 1.67 nM.

On to H-[dF][AlaL]F[dW]KT[AlaL]T-NH2 (thioether 2-7) [H-D-Phe-c[AlaLPhe-D-Trp-Lys-Thr-AlaL]-Thr-NH2], for which the IC50 in assay [5] turned out to be 10 nM; in assay [1], 0.5 nM.

On to H-[dF][AlaL]F[dW]KT[AlaL][Thr(ol)] (thioether 2-7) [H-D-Phe-c[AlaLPhe-D-Trp-Lys-Thr-AlaL]-Thr-ol], for which the half-inhibitory concentration (IC50) in assay [5] came to 5 nM; in assay [1], 1 nM.

B4: Tyr-c[D-AlaL-Gly-Phe-L-AlaL]-OH (peptide)
peptide: Y[dAlaL]GF[AlaL]-OH
modifications: bridge 2-5; not fully specified (bridges); printed as Tyr-c[D-AlaL-Gly-Phe-L-AlaL]-OH
In assay [2], B4 came in with an MVD IC50 of 0.16 nM.

In assay [5], [dF]CF[dW]KTC[Thr(ol)] (disulfide 2-7) [Sandostatin] displayed an IC50 of 2.4 nM.

B5: Tyr-c[D-ValL-Gly-Phe-L-AlaL]-OH (peptide)
peptide: Y[dValL]GF[AlaL]-OH
modifications: thioether 2-5; reading uncertain; also: printed as Tyr-c[D-ValL-Gly-Phe-L-AlaL]-OH
In assay [3], B5 came in with a GPI IC50 of 39 nM.

As usually defined, the IC50 is the point on the concentration scale where inhibition reaches its midpoint. Low readings indicate inhibition by little substance, high ones a need for much substance.
